According to the supplement of paper PMC10724198:
± gives the standard deviation of the averaged measurements.

Assays:
Saccharomyces cerevisiae [1] = test: protein stability index of tFT-peptide fusion (C-terminal peptide) (PSI (0-1 scale)); higher = more stable (slower turnover); settings: genetic background: wild type; temperature: 30 C
Saccharomyces cerevisiae [2] = test: as above
Procedure: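 MPS profiling in S. cerevisiae of the tFT-X12 degron library: putative degron peptides plus stable controls, 12 aa, fused to the C-terminus of a sfGFP-mCherry timer. Cells are FACS-sorted into 8 mCherry/sfGFP bins and deep-sequenced. PSI runs from 0 (unstable) to 1 (stable). Backgrounds are wild type, das1Δ and doa10Δ at 30 °C, and wild type, das1Δ, cdc34-1 and cdc53-1 at 37 °C; 2-3 technical replicates each.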

[3] = genetic background: cdc34-1, temperature: 37 C
[4] = genetic background: cdc53-1, temperature: 37 C
[5] = genetic background: das1 deletion, temperature: 30 C
[6] = genetic background: das1 deletion, temperature: 37 C
[7] = genetic background: doa10 deletion, temperature: 30 C
[8] = genetic background: wild type, temperature: 30 C
[9] = genetic background: wild type, temperature: 37 C
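Further: PSI is a weighted mean of sequencing reads over stability bins, variants kept only with over 10 reads, mCherry proximal and sfGFP distal, peptide attached via GGGS linker.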

Sequence | protein stability index (Saccharomyces cerevisiae [1]) | protein stability index (Saccharomyces cerevisiae [2]; [3]) | protein stability index (Saccharomyces cerevisiae [2]; [4]) | protein stability index (Saccharomyces cerevisiae [2]; [5]) | protein stability index (Saccharomyces cerevisiae [2]; [6]) | protein stability index (Saccharomyces cerevisiae [2]; [7]) | protein stability index (Saccharomyces cerevisiae [2]; [8]) | protein stability index (Saccharomyces cerevisiae [2]; [9])
KHTGTGNAPNCD | 0.754 ± 0.056 | 0.686 ± 0.061 | 0.729 ± 0.024 | 0.649 ± 0.013 | 0.719 ± 0.011 | 0.647 ± 0.025 | 0.635 ± 0.011 | 0.712 ± 0.012
KIKKLKNRRKLV | 0.166 ± 0.088 | 0.673 ± 0.0046 | 0.7717 ± 0.0033 | 0.625 ± 0.0071 | 0.7297 ± 0.003 | 0.0918 ± 0.019 | 0.0978 ± 0.0038 | 0.196 ± 0.032
KKKKQKKNNNKR | 0.536 ± 0.074 | 0.699 ± 0.094 | 0.687 ± 0.15 | 0.676 ± 0.083 | 0.755 ± 0.034 | 0.668 ± 0.011 | 0.6 ± 0.027 | 0.698 ± 0.079
KLKDLTRIKIFR | 0.722 ± 0.019 | 0.681 ± 0.0063 | 0.714 ± 0.033 | 0.666 ± 0.031 | 0.6989 ± 0.0069 | 0.6428 ± 0.002 | 0.6737 ± 0.0056 | 0.701 ± 0.011
KRARVIWKLVVV | 0.445 ± 0.0046 | 0.59 ± 0.033 | 0.528 ± 0.008 | 0.408 ± 0.024 | 0.583 ± 0.006 | 0.23 ± 0.01 | 0.287 ± 0.015 | 0.4876 ± 0.0039
KRMVEKNKKKIN | 0.31 ± 0.036 | 0.57 ± 0.063 | 0.747 ± 0.087 | 0.613 ± 0.029 | 0.729 ± 0.024 | 0.153 ± 0.024 | 0.201 ± 0.037 | 0.368 ± 0.012
KSSIGVWTLLIR | 0.494 ± 0.016 | 0.282 ± 0.012 | 0.3 ± 0.026 | 0.337 ± 0.026 | 0.454 ± 0.022 | 0.564 ± 0.02 | 0.334 ± 0.035 | 0.423 ± 0.022
KSTLVRILVFHV | 0.384 ± 0.071 | 0.559 ± 0.047 | 0.6474 ± 0.0042 | 0.458 ± 0.028 | 0.646 ± 0.044 | 0.2825 ± 0.0003 | 0.303 ± 0.0068 | 0.522 ± 0.0089
KYKANLGNLKVH | 0.135 ± 0.056 | 0.596 ± 0.067 | 0.7161 ± 0.0013 | 0.632 ± 0.019 | 0.725 ± 0.029 | 0.0824 ± 0.011 | 0.0914 ± 0.05 | 0.101 ± 0.0031
LAPPFPVVLTPA | 0.334 ± 0.015 | 0.294 ± 0.043 | 0.32381 ± 2.9e-05 | 0.263 ± 0.036 | 0.4137 ± 0.00012 | 0.219 ± 0.0087 | 0.267 ± 0.035 | 0.3816 ± 0.0013
LCGGEWVVWVKG | 0.342 ± 0.0052 | 0.645 ± 0.023 | 0.7321 ± 0.0055 | 0.557 ± 0.02 | 0.721 ± 0.012 | 0.211 ± 0.0085 | 0.234 ± 0.026 | 0.477 ± 0.029
LCIFFWFSSFFL | 0.493 ± 0.015 | 0.471 ± 0.028 | 0.561 ± 0.018 | 0.4 ± 0.021 | 0.5337 ± 0.0052 | 0.401 ± 0.0067 | 0.389 ± 0.019 | 0.505 ± 0.012
LCLICLFLLKVL | 0.337 ± 0.022 | 0.477 ± 0.049 | 0.548 ± 0.048 | 0.395 ± 0.03 | 0.586 ± 0.0076 | 0.18 ± 0.018 | 0.201 ± 0.032 | 0.299 ± 0.017
LCRCPVGVFVLL | 0.362 ± 0.012 | 0.516 ± 0.036 | 0.549 ± 0.031 | 0.39 ± 0.038 | 0.5395 ± 0.0021 | 0.356 ± 0.033 | 0.303 ± 0.035 | 0.469 ± 0.017
LCVVFCIRTYRV | 0.335 ± 0.053 | 0.249 ± 0.027 | 0.437 ± 0.079 | 0.259 ± 0.038 | 0.476 ± 0.044 | 0.247 ± 0.031 | 0.251 ± 0.042 | 0.471 ± 0.027
LCYVLLWLLCRS | 0.448 ± 0.027 | 0.45 ± 0.017 | 0.516 ± 0.049 | 0.349 ± 0.024 | 0.512 ± 0.0074 | 0.33 ± 0.0069 | 0.353 ± 0.026 | 0.501 ± 0.033
LDLPFESGIACF | 0.361 ± 0.0063 | 0.32 ± 0.035 | 0.297 ± 0.0081 | 0.259 ± 0.032 | 0.436 ± 0.027 | 0.209 ± 0.02 | 0.263 ± 0.029 | 0.397 ± 0.015
LEGLLIRVYITF | 0.288 ± 0.014 | 0.105 ± 0.034 | 0.234 ± 0.021 | 0.178 ± 0.019 | 0.3361 ± 0.00094 | 0.151 ± 0.017 | 0.173 ± 0.02 | 0.305 ± 0.0093
LFFFLFSLLIFF | 0.301 ± 0.036 | 0.248 ± 0.019 | 0.25 ± 0.0039 | 0.349 ± 0.044 | 0.362 ± 0.0094 | 0.377 ± 0.014 | 0.259 ± 0.047 | 0.352 ± 0.011
LFFFRLFVFWVF | 0.203 ± 0.0063 | 0.195 ± 0.034 | 0.173 ± 0.037 | 0.238 ± 0.021 | 0.369 ± 0.01 | 0.173 ± 0.014 | 0.157 ± 0.023 | 0.251 ± 0.0066
LFFFSFSFLFFL | 0.278 ± 0.035 | 0.291 ± 0.07 | 0.29 ± 0.0037 | 0.302 ± 0.015 | 0.411 ± 0.00085 | 0.317 ± 0.024 | 0.245 ± 0.014 | 0.3202 ± 0.0027
LFFFVFFVLFSV | 0.259 ± 0.075 | 0.2271 ± 0.00037 | 0.204 ± 0.0057 | 0.218 ± 0.013 | 0.3319 ± 0.0017 | 0.304 ± 0.013 | 0.211 ± 0.023 | 0.303 ± 0.016
LFFRLLCAFLFL | 0.529 ± 0.046 | 0.532 ± 0.041 | 0.452 ± 0.012 | 0.499 ± 0.047 | 0.584 ± 0.017 | 0.578 ± 0.04 | 0.501 ± 0.012 | 0.5353 ± 0.0031
LFFVFCLFFIYF | 0.247 ± 0.004 | 0.167 ± 0.031 | 0.102 ± 0.0085 | 0.235 ± 0.024 | 0.301 ± 0.0074 | 0.322 ± 0.0061 | 0.252 ± 0.017 | 0.264 ± 0.011
LFHSIPRLLLLK | 0.367 ± 0.053 | 0.0746 ± 0.013 | 0.0485 ± 0.0081 | 0.23 ± 0.087 | 0.27 ± 0.04 | 0.627 ± 0.0064 | 0.241 ± 0.033 | 0.218 ± 0.041
LFKFCLGIPLFL | 0.479 ± 0.038 | 0.51 ± 0.026 | 0.522 ± 0.029 | 0.412 ± 0.037 | 0.576 ± 0.006 | 0.4179 ± 0.004 | 0.402 ± 0.029 | 0.559 ± 0.014
LFLSAFFYLLVW | 0.284 ± 0.039 | 0.199 ± 0.0028 | 0.2233 ± 0.0014 | 0.245 ± 0.029 | 0.341 ± 0.0047 | 0.277 ± 0.0047 | 0.238 ± 0.014 | 0.3077 ± 0.002
LFLVLFCVVGFV | 0.282 ± 0.0047 | 0.234 ± 0.036 | 0.311 ± 0.031 | 0.226 ± 0.027 | 0.377 ± 0.0076 | 0.222 ± 0.0075 | 0.219 ± 0.02 | 0.337 ± 0.011
LFSFFVFFFLLD | 0.435 ± 0.034 | 0.358 ± 0.086 | 0.446 ± 0.0062 | 0.364 ± 0.044 | 0.522 ± 0.031 | 0.375 ± 0.005 | 0.37 ± 0.031 | 0.476 ± 0.02
LFTRWSILFKLF | 0.132 ± 0.0026 | 0.335 ± 0.075 | 0.357 ± 0.058 | 0.559 ± 0.032 | 0.694 ± 0.052 | 0.0889 ± 0.025 | 0.0908 ± 0.012 | 0.136 ± 0.015
